We go through two molecules from paper PMC5737651.

Like-named read-outs stand apart in the source and are kept apart here.

Test in all cases: EMSA
(In general: In EMSA bound probe runs differently from free probe, usually more slowly.)

One series has as its target F3 (human, UniProt Q9BXW9 841-1178).
A further series deals with F1 (human, UniProt Q9BXW9 1-588).
In series [1] the target is T1, F4 (human, UniProt Q9BXW9 1179-1451).
Series [2] concerns the target T2, F1Mut5aa (K-A) (human, UniProt Q9BXW9 1-588, S29A;K30A;K31A;T32A;K34A).
Series [3] deals with T3, FANCD2 WT full-length (human, UniProt Q9BXW9 1-1451).
Series [4] has as its target T4, F3Mut1aa (human, UniProt Q9BXW9 841-1178, K865A).
Series [5] concerns the target T5, F2 (human, UniProt Q9BXW9 589-840).
The target of series [6] is T1, F4. The source holds these as a separate data set.
Series [7] has as its target T2, F1Mut5aa (K-A). This is another data set of the same source.
The target in series [8] is T4, F3Mut1aa. The source holds these as a separate data set.
Series [9] has as its target T5, F2. The source holds these as a separate data set.
For series [10], the target named is T3, FANCD2 WT full-length. This is another data set of the same source.

T1 sequence (Q9BXW9 1179-1451): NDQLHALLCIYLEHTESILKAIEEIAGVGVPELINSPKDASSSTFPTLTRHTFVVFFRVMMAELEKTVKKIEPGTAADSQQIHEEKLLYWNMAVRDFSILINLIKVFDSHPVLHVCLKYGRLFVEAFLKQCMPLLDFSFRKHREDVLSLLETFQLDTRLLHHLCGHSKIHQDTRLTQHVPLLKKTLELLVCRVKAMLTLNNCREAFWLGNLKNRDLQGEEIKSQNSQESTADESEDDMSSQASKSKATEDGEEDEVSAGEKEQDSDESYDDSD
T3 sequence (Q9BXW9 whole entry): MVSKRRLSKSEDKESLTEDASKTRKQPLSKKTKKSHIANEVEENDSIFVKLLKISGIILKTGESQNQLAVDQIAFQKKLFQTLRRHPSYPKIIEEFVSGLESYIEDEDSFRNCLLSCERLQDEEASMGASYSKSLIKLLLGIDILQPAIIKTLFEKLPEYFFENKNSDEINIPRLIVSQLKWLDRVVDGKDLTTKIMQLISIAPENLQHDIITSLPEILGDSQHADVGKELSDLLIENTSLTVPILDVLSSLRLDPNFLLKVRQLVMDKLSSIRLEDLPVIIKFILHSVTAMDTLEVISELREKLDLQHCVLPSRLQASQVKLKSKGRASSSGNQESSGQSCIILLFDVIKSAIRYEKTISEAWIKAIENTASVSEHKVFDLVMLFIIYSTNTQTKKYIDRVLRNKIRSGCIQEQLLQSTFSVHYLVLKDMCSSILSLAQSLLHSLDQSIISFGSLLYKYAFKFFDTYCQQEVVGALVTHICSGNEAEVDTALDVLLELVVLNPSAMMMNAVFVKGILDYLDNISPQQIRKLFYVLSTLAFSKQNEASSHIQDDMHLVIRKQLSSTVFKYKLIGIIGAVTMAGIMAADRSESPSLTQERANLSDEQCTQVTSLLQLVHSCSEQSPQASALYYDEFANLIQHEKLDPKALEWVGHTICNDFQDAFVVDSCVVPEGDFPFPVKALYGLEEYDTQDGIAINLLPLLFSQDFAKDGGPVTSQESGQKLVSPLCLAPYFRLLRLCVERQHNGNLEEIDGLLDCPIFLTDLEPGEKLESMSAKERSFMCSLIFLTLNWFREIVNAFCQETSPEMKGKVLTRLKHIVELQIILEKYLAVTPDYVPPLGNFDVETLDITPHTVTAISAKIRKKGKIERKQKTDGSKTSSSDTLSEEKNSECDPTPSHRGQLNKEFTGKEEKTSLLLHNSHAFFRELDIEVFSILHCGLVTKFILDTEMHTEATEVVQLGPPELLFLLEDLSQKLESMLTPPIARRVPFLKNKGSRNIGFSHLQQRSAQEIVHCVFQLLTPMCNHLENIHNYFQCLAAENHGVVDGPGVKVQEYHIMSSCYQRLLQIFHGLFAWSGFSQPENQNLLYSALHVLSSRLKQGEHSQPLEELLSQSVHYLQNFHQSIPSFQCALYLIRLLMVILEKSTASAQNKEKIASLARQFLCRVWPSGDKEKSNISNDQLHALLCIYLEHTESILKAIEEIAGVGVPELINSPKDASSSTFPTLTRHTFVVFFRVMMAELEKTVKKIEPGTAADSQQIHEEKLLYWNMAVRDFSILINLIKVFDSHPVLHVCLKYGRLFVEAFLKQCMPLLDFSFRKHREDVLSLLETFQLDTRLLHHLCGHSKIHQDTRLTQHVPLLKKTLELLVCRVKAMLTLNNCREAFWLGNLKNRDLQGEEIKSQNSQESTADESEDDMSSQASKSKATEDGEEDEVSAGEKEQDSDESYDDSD
T4 sequence (Q9BXW9 841-1178 K865A): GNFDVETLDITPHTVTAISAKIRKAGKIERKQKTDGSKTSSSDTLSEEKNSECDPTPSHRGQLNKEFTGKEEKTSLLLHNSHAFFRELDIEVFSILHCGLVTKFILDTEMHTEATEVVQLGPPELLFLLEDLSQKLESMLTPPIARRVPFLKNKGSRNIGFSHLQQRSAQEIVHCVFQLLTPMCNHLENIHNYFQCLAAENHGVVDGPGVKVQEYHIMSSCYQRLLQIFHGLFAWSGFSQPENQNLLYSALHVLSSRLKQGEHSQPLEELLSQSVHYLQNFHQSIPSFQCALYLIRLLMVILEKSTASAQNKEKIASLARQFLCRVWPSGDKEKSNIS
T2 sequence (Q9BXW9 1-588 S29A/K30A/K31A/T32A/K34A): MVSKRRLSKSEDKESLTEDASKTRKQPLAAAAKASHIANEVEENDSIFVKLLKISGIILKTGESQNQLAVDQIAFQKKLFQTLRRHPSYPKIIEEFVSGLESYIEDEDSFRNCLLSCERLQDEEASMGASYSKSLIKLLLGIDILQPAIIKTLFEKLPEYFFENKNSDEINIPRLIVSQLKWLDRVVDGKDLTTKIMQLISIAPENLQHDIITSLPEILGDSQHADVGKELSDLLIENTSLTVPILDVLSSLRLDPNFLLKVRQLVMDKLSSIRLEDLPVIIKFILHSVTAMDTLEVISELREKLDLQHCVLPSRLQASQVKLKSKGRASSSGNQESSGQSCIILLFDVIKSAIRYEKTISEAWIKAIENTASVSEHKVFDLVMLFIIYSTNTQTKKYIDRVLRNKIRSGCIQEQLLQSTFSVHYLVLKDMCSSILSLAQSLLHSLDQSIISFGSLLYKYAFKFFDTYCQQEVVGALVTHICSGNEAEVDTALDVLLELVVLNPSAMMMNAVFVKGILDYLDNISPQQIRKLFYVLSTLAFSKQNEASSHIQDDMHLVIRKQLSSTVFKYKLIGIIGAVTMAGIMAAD
T5 sequence (Q9BXW9 589-840): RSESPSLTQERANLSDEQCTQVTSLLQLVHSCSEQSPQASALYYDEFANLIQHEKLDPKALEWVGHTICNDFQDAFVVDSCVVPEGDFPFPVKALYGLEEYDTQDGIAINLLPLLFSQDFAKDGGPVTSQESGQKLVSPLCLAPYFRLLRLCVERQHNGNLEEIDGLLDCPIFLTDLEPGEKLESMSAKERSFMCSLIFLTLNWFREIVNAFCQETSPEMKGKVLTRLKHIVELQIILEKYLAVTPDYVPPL
Sequence of F1 (Q9BXW9 1-588): as the sequence (Q9BXW9 1-588 S29A/K30A/K31A/T32A/K34A) above, with A29S, A30K, A31K, A32T, A34K counted along it
Sequence of F3 (Q9BXW9 841-1178): as the sequence (Q9BXW9 841-1178 K865A) above, with A25K counted along it

B1: ssDNA (SS) (ssDNA)
DNA: GGGTGAACCTGCAGGTGGGCAAAGATGTCCTAGCAATGTAATCGTCAAGCTTTATGCCGT
As to B1, the binding result with F3 is listed as “binds”; with F1, “binds”; with F4 [1] it was “no binding”; in the series with F1Mut5aa (K-A) [2], “no binding”; with FANCD2 WT full-length [3] it was “binds”; with F3Mut1aa [4] it was “no binding”. Further, the binding result in the series with F2 [5] is “no binding”.

B2: Holliday junction (HJ) (structured_DNA)
DNA 1: B1 DNA
DNA 2: ACGCTGCCGAATTCTACCAGTGCCAGCGACGGACATCTTTGCCCACCTGCAGGTTCACCC
DNA 3: ACGGCATAAAGCTTGACGATTACATTGCTACATGGAGCTGTCTAGAGGATCCGACTATCG
DNA 4: CGATAGTCGGATCCTCTAGACAGCTCCATGGTCGCTGGCACTGGTAGAATTCGGCAGCGT
Take B2: the binding result with F4 [6] is “no binding”; with F1Mut5aa (K-A) [7], “no binding”; in the series with F3Mut1aa [8], “no binding”; with F2 [9] it was “no binding”; in the series with FANCD2 WT full-length [10], “binds”.
